These results are taken from article PMC12590944.

This test deals with Archaeoglobus fulgidus ferritin (AfFt), empty cage (Archaeoglobus fulgidus) (UniProt O29424). The test is described as follows: UV-vis spectra; AfFt@ samples (AfFt mixed with APEX2-GFP+ at 1:3 under 300 mM NaCl); cargo per cage calculated from the spectra.

On to “Engineered Ascorbate Peroxidase 2-GFP+36 fusion protein (APEX2-GFP+) (enzyme)”, for which the stoichiometry N (cargo molecules per cage) was 1.45.
